Results taken from patent publication US20240190999A1 (Molecular Partners, published 2024).
One block for each binder: values may come before it.

Assays:
[1] = molecular target: T1, human fibroblast activation protein (hFAP) (human, UniProt Q12884 26-760, limits assumed); test: SPR (ProteOn XPR36), hFAP immobilised on GLC chip, construct as analyte
T1 construct: Recombinant soluble protein; also called human FAP; rhFAP
Method: Assay set-up: Briefly, SPR measurements were performed using a ProteOn XPR36 instrument (BioRad) as described above. Biotinylated human and cynomolgus 4-1BB and human FAP were immobilized either directly or indirectly via NeutrAvidin (˜6000 RU pre-coated) on a GLC chip to reach 600 RU, 700 RU and 2000 RU, respectively. The interaction of FAP-4-1BB bispecific constructs to the coated targets was measured by injecting the bispecific constructs in a serial dilution of 50, 16.7, 5.6, 1.9 and 0.6 nM with an association of 120 s and dissociation of 1800 s using a constant flow rate of 30 μl/min. Targets were regenerated between the individual measurements using 10 mM glycine pH 2 and 124 mM H₃PO₄. The signals were double referenced against the running buffer (PBST) treated control lane.
Target sequence in this assay (Q12884 26-760 limits assumed): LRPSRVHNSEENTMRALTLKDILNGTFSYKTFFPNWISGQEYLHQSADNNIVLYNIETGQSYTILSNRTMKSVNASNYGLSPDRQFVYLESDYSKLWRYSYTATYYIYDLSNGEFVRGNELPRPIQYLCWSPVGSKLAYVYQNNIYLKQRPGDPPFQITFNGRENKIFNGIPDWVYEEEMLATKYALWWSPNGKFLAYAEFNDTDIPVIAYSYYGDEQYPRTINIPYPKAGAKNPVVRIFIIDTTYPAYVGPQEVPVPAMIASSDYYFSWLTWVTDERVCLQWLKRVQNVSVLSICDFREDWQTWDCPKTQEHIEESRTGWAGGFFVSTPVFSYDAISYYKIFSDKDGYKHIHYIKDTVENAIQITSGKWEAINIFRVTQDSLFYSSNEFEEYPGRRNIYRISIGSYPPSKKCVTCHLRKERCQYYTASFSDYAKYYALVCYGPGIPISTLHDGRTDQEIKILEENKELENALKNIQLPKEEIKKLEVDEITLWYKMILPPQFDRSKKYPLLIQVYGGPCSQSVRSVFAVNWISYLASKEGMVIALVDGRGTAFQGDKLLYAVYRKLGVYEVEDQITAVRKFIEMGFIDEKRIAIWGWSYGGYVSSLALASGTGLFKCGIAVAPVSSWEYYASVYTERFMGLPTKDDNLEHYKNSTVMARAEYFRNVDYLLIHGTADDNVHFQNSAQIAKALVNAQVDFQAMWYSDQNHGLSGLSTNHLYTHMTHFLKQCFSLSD

[2] = molecular target: T2, biotinylated human 4-1BB (bio.h4-1BB) (human, UniProt Q07011 24-186, limits assumed, biotinylated (site not stated)); test: SPR (ProteOn XPR36), biotinylated human 4-1BB immobilised, construct as analyte
T2 construct: also called CD137
T2 sequence (Q07011 24-186 limits assumed): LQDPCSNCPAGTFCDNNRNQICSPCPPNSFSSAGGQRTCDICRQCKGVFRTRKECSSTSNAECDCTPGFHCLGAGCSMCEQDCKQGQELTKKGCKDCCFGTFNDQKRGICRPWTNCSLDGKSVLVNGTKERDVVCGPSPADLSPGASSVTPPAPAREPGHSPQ

[3] = molecular target: human 4-1BB on transfected HT1080 NF-kB-luciferase reporter cells (human, UniProt Q07011 24-255); test: cell-based or functional assay
human 4-1BB on transfected HT1080 NF-kB-luciferase reporter cells, sequence (Q07011 24-255 limits assumed): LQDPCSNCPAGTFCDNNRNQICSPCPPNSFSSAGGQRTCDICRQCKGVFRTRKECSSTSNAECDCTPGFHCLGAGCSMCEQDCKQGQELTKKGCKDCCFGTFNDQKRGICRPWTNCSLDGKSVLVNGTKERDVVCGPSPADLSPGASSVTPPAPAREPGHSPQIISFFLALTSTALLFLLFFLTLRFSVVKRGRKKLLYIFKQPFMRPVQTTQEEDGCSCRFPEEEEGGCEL

[4] = molecular target: mouse serum albumin (MSA) (mouse, UniProt P07724 25-608); test: SPR (ProteOn XPR36), MpA captured on bio.h4-1BB, MSA analyte, 1:1 Langmuir fit
mouse serum albumin (MSA), sequence (P07724 25-608 limits assumed): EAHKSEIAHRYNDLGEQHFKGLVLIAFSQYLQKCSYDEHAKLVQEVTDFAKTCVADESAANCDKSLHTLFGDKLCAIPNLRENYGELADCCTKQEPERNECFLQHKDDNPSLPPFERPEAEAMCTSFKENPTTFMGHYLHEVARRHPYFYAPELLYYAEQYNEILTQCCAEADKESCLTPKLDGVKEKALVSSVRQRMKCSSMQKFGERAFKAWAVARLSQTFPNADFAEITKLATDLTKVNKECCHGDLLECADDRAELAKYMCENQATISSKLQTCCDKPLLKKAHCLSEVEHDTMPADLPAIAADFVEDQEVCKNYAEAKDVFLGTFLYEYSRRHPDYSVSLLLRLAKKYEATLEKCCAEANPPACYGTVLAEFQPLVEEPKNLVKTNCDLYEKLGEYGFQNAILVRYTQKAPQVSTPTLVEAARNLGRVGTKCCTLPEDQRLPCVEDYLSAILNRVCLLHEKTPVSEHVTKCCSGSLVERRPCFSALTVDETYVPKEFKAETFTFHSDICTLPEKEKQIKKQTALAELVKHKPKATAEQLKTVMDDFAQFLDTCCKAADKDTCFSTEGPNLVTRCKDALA
Method: (§1) ProteOn setup for MpA binding to serum albumin of different species: SPR measurements were performed using a ProteOn XPR36 instrument (BioRad). The running buffer was PBS pH 7.4 containing 0.005% Tween 20® (PBST). First, bio.h4-1BB was coated on NLC chip (BioRad) to a level of 320 RU before […] MpA was immobilized for 180 s at constant flow of 30 μl/min to a level of 200 RU. The binding of the serum albumin to MpA was detected by applying HSA (human serum albumin), CSA (cynomolgus serum albumin) and MSA (mouse serum albumin) as titration with a 180 s association and 1800 s dissociation phase using a constant flow of 100 μl/min. HSA, CSA and MSA binding was measured serially and the bio.h4-1BB/MpA complex was regenerated each time with 10 mM glycine pH 2 and 124 mM H3P04. Thus, MpA had to be recoated after each regeneration step. The signals were double referenced against the running buffer (PBST) treated control lane of L1 and A6. The 1:1 Langmuir model was used for the fitting.

[5] = molecular target: cynomolgus serum albumin (CSA) (cynomolgus monkey, UniProt A2V9Z4 25-608); test: SPR (ProteOn XPR36), MpA captured on bio.h4-1BB, CSA analyte, 1:1 Langmuir fit
cynomolgus serum albumin (CSA), sequence (A2V9Z4 25-608 limits assumed): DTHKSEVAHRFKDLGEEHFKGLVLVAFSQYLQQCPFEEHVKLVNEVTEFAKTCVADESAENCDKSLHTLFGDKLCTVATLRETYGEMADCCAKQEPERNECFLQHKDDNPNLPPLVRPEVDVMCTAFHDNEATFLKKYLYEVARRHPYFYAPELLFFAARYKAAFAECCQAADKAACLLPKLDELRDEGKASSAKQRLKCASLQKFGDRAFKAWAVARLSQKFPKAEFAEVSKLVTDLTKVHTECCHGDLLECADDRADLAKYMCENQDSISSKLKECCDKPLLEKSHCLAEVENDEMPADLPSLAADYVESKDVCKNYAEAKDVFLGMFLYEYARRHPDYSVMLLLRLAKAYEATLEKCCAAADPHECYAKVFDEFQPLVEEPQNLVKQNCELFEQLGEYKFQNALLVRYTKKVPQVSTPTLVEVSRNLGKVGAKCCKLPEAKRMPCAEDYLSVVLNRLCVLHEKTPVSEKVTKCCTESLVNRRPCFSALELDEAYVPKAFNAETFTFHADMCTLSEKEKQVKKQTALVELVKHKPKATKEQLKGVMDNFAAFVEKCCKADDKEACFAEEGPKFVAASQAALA
Method: as §1

[6] = molecular target: T3, biotinylated mouse 4-1BB (bio.m4-1BB) (mouse, UniProt P20334 24-187, limits assumed, biotinylated (site not stated)); test: SPR (ProteOn XPR36), bio.m4-1BB on NLC chip, MpA as analyte
T3 sequence (looked up): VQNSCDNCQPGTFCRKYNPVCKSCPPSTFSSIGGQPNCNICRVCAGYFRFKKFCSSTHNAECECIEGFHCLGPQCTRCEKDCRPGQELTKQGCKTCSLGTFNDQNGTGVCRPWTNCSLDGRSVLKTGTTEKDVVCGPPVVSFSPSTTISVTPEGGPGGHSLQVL
Method: (§2) ProteOn setup for MpA binding to 4-1BB of different species: SPR measurements were performed using a ProteOn XPR36 instrument (BioRad). The running buffer was PBS pH 7.4 containing 0.005% Tween 20® (PBST). The bio.h4-1BB, bio.c4-1BB and bio.m4-1BB were immobilized on NLC chips (BioRad) to a level of 320 RU. The binding of MpA to 4-1BB was measured by injecting MpA in a serial dilution of 30, 10, 3.3, 1.1 and 0.3 nM with an association of 180 s and dissociation of 1800 s using a constant flow of 100 μl/min (see Table 3). The measurement was repeated three times and the targets were regenerated between the individual measurements using 10 mM glycine pH 2 and 124 mM H₃PO₄. The signals were double referenced against the running buffer (PBST) treated control lane of L1 and A6. h4-1BB, c-4-1BB, and m4-1BB refer to human, cynomolgus, and mouse orthologs of 4-1BB, respectively.

cynomolgus FAP (cFAP) = molecular target: T4, cynomolgus FAP (cFAP) (cynomolgus monkey); test: SPR (ProteOn XPR36), cFAP on GLC chip, MpA analyte, 1:1 Langmuir fit
T4 chain: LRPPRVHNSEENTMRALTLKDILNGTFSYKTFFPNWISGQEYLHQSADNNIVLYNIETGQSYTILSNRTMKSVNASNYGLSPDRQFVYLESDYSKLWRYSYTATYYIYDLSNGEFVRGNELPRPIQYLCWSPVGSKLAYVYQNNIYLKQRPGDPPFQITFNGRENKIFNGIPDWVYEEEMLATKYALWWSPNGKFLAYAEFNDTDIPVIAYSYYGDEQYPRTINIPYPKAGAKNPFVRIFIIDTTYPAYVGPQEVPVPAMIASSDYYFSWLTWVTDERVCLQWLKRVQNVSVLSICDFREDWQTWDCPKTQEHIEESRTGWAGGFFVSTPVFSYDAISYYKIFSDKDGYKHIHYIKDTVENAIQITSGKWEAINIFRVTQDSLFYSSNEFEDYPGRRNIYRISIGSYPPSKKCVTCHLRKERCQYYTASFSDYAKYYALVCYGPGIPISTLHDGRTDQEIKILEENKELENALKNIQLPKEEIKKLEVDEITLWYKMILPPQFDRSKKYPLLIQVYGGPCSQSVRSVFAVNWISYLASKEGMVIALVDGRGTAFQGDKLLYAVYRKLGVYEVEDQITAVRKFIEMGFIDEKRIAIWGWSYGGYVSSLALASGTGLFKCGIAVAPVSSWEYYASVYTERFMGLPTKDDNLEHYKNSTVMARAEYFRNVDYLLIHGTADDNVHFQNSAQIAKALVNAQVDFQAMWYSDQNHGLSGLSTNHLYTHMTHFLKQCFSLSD
Method: (§3) ProteOn setup for MpA binding to FAP of different species: SPR measurements were performed using a ProteOn XPR36 instrument (BioRad). The running buffer was PBS pH 7.4 containing 0.005% Tween 200 (PBST). hFAP (human FAP), cFAP (cynomolgus FAP) and mFAP (mouse FAP) were immobilized on a GLC chip (BioRad) at pH 5.3 to a level of 2000 RU, 1700 RU and 5000 RU, respectively. The interaction of FAP and MpA was measured by applying the MpA molecule as titration (see Table 2).

[7] = molecular target: T1, human fibroblast activation protein …; test: SPR (ProteOn XPR36), hFAP on GLC chip, MpA analyte, 1:1 Langmuir fit; mean of duplicate
Method: as §3
Two independent measurements were conducted to detect the binding of MpA to hFAP. The targets were regenerated using 10 mM glycine pH 2 and 124 mM H₃PO₄. The signals were double referenced against the PBST treated control lane of L1 and A6. The 1:1 Langmuir model was used for the fitting.

mouse FAP (mFAP) = mouse FAP (mFAP) (mouse, UniProt P97321 26-761, limits assumed); test: SPR (ProteOn XPR36), mFAP on GLC chip, MpA as analyte
mouse FAP (mFAP), sequence (P97321 26-761 limits assumed): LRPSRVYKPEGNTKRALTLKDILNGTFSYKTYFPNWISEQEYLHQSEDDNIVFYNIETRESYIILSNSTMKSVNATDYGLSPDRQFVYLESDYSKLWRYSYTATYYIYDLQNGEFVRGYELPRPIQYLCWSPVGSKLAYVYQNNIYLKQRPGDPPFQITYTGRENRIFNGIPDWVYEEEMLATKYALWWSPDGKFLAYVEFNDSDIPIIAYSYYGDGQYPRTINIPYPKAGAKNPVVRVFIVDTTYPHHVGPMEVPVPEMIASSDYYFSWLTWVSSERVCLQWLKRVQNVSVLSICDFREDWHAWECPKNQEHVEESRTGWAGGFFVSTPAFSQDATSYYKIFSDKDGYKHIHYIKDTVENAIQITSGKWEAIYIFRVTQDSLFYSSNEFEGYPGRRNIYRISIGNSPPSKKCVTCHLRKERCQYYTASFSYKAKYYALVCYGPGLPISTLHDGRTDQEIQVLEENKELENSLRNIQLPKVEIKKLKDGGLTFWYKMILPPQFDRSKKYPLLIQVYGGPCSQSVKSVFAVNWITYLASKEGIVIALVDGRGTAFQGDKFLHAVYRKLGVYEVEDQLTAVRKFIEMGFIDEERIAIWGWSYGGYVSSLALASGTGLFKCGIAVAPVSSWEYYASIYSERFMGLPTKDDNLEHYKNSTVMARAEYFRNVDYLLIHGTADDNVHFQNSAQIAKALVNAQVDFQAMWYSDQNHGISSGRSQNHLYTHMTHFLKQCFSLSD
Method: as §3

[8] = molecular target: T5, human 4-1BB on primary human CD8 T cells (human, UniProt Q07011 24-255); test: cell-based or functional assay
T5 sequence (Q07011 24-255 limits assumed): as the sequence (Q07011 24-255 limits assumed) above

[9] = molecular target: human serum albumin (HSA) (human, UniProt P02768 25-609); test: SPR (ProteOn XPR36), MpA captured on bio.h4-1BB, HSA analyte, 1:1 Langmuir fit
Method: as §1

[10] = molecular target: T2, biotinylated human 4-1BB (bio.h4-1BB); test: SPR (ProteOn XPR36), bio.h4-1BB on NLC chip, MpA analyte; mean of triplicate; apparent affinity (bivalent)
Method: as §2

[11] = molecular target: T2, biotinylated human 4-1BB (bio.h4-1BB); test: SPR (ProteOn XPR36), bio.h4-1BB on NLC chip, MpA analyte; mean of triplicate
Method: as §2

[12] = molecular target: T5, human 4-1BB on primary human CD8 T cells; test: cell-based or functional assay; remark: listed apart in the source

- Kd [1]: 0.22 nM
B1: bispecific construct #50 (designed binder)
chain: MRGSHHHHHHGSDLGEKLLVAALYGQDDEVRILLAAGADVNAKDQWGLTPLHKAALQGHLEIVEVLLKAGADVNAKDERGHTPLHWAARFGHLEIVEVLLKAGADVNAQDQKGYTPADLAALWGHEDIAEVLQKAAGSPTPTPTTPTPTPTTPTPTPTGSDLGKKLLEAARAGQDDEVRELLKAGADVNAKDKDGYTPLHLAAREGHLEIVEVLLKAGADVNAKDKDGYTPLHLAAREGHLEIVEVLLKAGADVNAQDKSGKTPADLAADAGHEDIAEVLQKAA
notes: also called negative control construct #50
- binding result [2]: no binding (tested: 50 nM highest concentration injected)

- EC50, NF-κB-luciferase reporter in h4-1BB-HT1080 cells with CHO-hFAP cells [3]: 0.41 nM
- Kd [4]: 38 nM
- koff [4]: 0.038 s⁻¹
- kon [4]: 1e+06 M⁻¹ s⁻¹
- Kd [5]: 67 nM
- koff [5]: 0.075 s⁻¹
- kon [5]: 1.1e+06 M⁻¹ s⁻¹
- Kd (cynomolgus FAP (cFAP)): 0.8 nM
- koff (cynomolgus FAP (cFAP)): 0.00013 s⁻¹
- kon (cynomolgus FAP (cFAP)): 170000 M⁻¹ s⁻¹
- Kd [7]: 0.4 nM
- koff [7]: 0.00013 s⁻¹
- kon [7]: 470000 M⁻¹ s⁻¹
- EC50, IFNγ production by primary human CD8 T cells (anti-CD3 plus plate-coated hFAP) [8]: 1.17 nM
- Kd [9]: 8 nM
- koff [9]: 0.012 s⁻¹
- kon [9]: 1.5e+06 M⁻¹ s⁻¹
- Kd [10]: 0.013 nM
- koff [11]: 3.2e-05 s⁻¹
- kon [11]: 2.6e+06 M⁻¹ s⁻¹
- EC50, IFNγ secretion of human CD8 T cells (plate-coated hFAP) [12]: 1 to 2 nM
B2: Multispecific binding protein A (MpA) (designed binder)
chain: GSDLGKKLLEAARAGQDDEVRELLKAGADVNAKDYFSHTPLHLAARNGHLKIVEVLLKAGADVNAKDFAGKTPLHLAAADGHLEIVEVLLKAGADVNAQDIFGKTPADIAADAGHEDIAEVLQKAAGSPTPTPTTPTPTPTTPTPTPTGSDLGKKLLEAARAGQDDEVRELLKAGADVNAKDVLGWTPLHLAAFEGHLEIVEVLLKAGADVNAKDKKGWTPLQLAARTGHLEIVEVLLKAGADVNAKDHIGATPLHLAAWQGHPEIVEVLLKAGADVNAQDKSGKTPADLAADAGHEDIAEVLQKAAGSPTPTPTTPTPTPTTPTPTPTGSDLGQKLLKAAQEGQDDEVRELLKAGADVNAKDLRGITPLHVAAWQGHLEIVEVLLKAGADVNAKDSKGETPLHLAAFRGHLEIVEVLLKAGADVNAQDQQGETPADLAALAGHVDIAEVLQKAAGSPTPTPTTPTPTPTTPTPTPTGSDLGQKLLKAAQEGQDDEVRELLKAGADVNAKDLRGITPLHVAAWQGHLEIVEVLLKAGADVNAKDSKGETPLHLAAFRGHLEIVEVLLKAGADVNAQDQQGETPADLAALAGHVDIAEVLQKAAGSPTPTPTTPTPTPTTPTPTPTGSDLGKKLLEAARAGQDDEVRELLKAGADVNAKDYFSHTPLHLAARNGHLKIVEVLLKAGADVNAKDFAGKTPLHLAAADGHLEIVEVLLKAGADVNAQDIFGKTPADIAADAGHEDIAEVLQKAA
notes: also called HFBBH
- binding result [6]: no binding (tested: 30 nM highest concentration injected)
- binding result (mouse FAP (mFAP)): no binding (tested: 50 nM highest concentration injected)
